Data reported in paper PMC3340421 (Biochemistry, 2009).

Assays:
[1] = cited from earlier work
[2] = MP-FRaP
[3] = time-resolved emission of free [Re]-peptides; assay type: physicochemical; details: free peptide
α2 = α2 (Escherichia coli, UniProt P00452); experiment: peptide binding to α2 by steady-state emission titration; design: species or system E. coli; details: 5 μM peptide, α2 0→65 μM, pH 7.5
[4] = [Re^II(bpy•−)]* couple; cited from earlier work
[5] = target: Ac-Y-βC19 peptide C-terminal 19-residue peptide (Escherichia coli) (UniProt P69924); details: cited from earlier work
[6] = target: [Re]-Y-βC19 peptide (C-terminal tail of beta2) 356-375 (Escherichia coli, UniProt P69924, Re(bpy)(CO)3CN appended at N-terminus of peptide); experiment: steady-state emission titration
[7] = α2 radius by DLS or crystal structure and Einstein-Stokes diffusion coefficient; details: for diffusion coefficient kd2: Einstein-Stokes, 25 °C, η ∼1 cP

Sequence of [Re]-Y-βC19 peptide (C-terminal tail of beta2) 356-375 (P69924 356-375): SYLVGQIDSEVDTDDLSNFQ

CC(=O)N[C@@H](Cc1cc(F)c(O)c(F)c1)C(N)=O [Ac-3,5-F2Y-NH2]
pKa of 3,5-F2Y amino acid in solution [1]: 7.2

CC[C@H](C)[C@H](NC(=O)[C@H](CCC(N)=O)NC(=O)CNC(=O)[C@@H](NC(=O)[C@H](CC(C)C)NC(=O)[C@H](Cc1ccc(O)cc1)NC(=O)c1ccnc(-c2cc(C)ccn2)c1)C(C)C)C(=O)N[C@@H](CC(=O)O)C(=O)N[C@@H](CO)C(=O)N[C@@H](CCC(=O)O)C(=O)N[C@H](C(=O)N[C@@H](CC(=O)O)C(=O)N[C@H](C(=O)N[C@@H](CC(=O)O)C(=O)N[C@@H](CC(=O)O)C(=O)N[C@@H](CC(C)C)C(=O)N[C@@H](CO)C(=O)N[C@@H](CC(N)=O)C(=O)N[C@@H](Cc1ccccc1)C(=O)N[C@@H](CCC(N)=O)C(=O)N[C@@H](CC(C)C)C(=O)O)[C@@H](C)O)C(C)C [[Re]-Y-βC19]
diffusion coefficient kd1 [2]: 6.1 × 10^−7 cm^−1 s^–1 | emission decay lifetime τ1 ([3]; pH 12, bi-exponential fit): 0.5 ns | emission decay lifetime τ2 ([3]; pH 12, bi-exponential fit): 3.0 ns | fraction of emission decay component τ1 ([3]; pH 12, bi-exponential fit): 86% | fraction of emission decay component τ2 ([3]; pH 12, bi-exponential fit): 14% | emission lifetime τ ([3]; pH < 10): 62 ± 2 ns | change of emission band upon binding to α2 (α2): the emission band blue shifts and increases in intensity

Re(bpy)(CO)3CN [[Re]]
excited state reduction potential E° [4]: 1.59 V vs. NHE

ribonucleotide reductase alpha2 (from UniProt P00452)
Kd [5]: 20 µM

B1: Ribonucleotide reductase R1 subunit alpha2 (protein)
chain: MNQNLLVTKRDGSTERINLDKIHRVLDWAAEGLHNVSISQVELRSHIQFYDGIKTSDIHETIIKAAADLISRDAPDYQYLAARLAIFHLRKKAYGQFEPPALYDHVVKMVEMGKYDNHLLEDYTEEEFKQMDTFIDHDRDMTFSYAAVKQLEGKYLVQNRVTGEIYESAQFLYILVAACLFSNYPRETRLQYVKRFYDAVSTFKISLPTPIMSGVRTPTRQFSSCVLIECGDSLDSINATSSAIVKYVSQRAGIGINAGRIRALGSPIRGGEAFHTGCIPFYKHFQTAVKSCSQGGVRGGAATLFYPMWHLEVESLLVLKNNRGVEGNRVRHMDYGVQINKLMYTRLLKGEDITLFSPSDVPGLYDAFFADQEEFERLYTKYEKDDSIRKQRVKAVELFSLMMQERASTGRIYIQNVDHCNTHSPFDPAIAPVRQSNLCLEIALPTKPLNDVNDENGEIALCTLSAFNLGAINNLDELEELAILAVRALDALLDYQDYPIPAAKRGAMGRRTLGIGVINFAYYLAKHGKRYSDGSANNLTHKTFEAIQYYLLKASNELAKEQGACPWFNETTYAKGILPIDTYKKDLDTIANEPLHYDWEALRESIKTHGLRNSTLSALMPSETSSQISNATNGIEPPRGYVSIKASKDGILRQVVPDYEHLHDAYELLWEMPGNDGYLQLVGIMQKFIDQSISANTNYDPSRFPSGKVPMQQLLKDLLTAYKFGVKTLYYQNTRDGAEDAQDDLVPSIQDDGCESGACKI
Kd [6]: 9 µM

B2: α2: active site-containing subunit of RNR, E. coli class I, homodimer (protein, UniProt P00452 1-761, looked up)
Ribonucleoside-diphosphate …: B1 chain
diffusion coefficient kd2 ([7]; DLS radius 55.8 Å): 3.9 × 10^−7 cm^2 s^−1 | diffusion coefficient kd2 ([7]; crystal structure radius 40.4 Å): 5.4 × 10^−7 cm^2 s^−1 | radius estimated from crystal structure ([7]; eq 5 with d1, d2, d3 = 100.7, 71.4, 73.2 Å): 40.4 Å
